Experiments:
[1] = substrate: Nc1ncnc2c1ncn2[C@@H]1O[C@H](COP(=O)(O)OP(=O)(O)O)[C@@H](O)[C@H]1O; assay: radiolabelled uptake (Michaelis-Menten) in intact E. coli cells expressing HvBT1; also counter-exchange and reduction of ADP-Glc uptake; type: cell-based, Hordeum vulgare; settings: counter-exchange substrate with ADP-glucose
[2] = substrate: Nc1ncnc2c1ncn2[C@@H]1O[C@H](COP(=O)(O)OP(=O)(O)O[C@H]2O[C@H](CO)[C@@H](O)[C@H](O)[C@H]2O)[C@@H](O)[C@H]1O; assay: radiolabelled uptake (Michaelis-Menten) in intact E. coli cells expressing HvBT1; empty-plasmid control subtracted; type: cell-based, Hordeum vulgare

B1: HvBT1 (barley plastidial ADP-glucose transporter) (Hordeum vulgare subsp. vulgare) (protein)
chain: MAAAMAATTMVTKNNGGSLAMDKKNWFFRPAPEVAFSWSSQPESRSLEFPRRALFASVGLSLSHDGKARPADDVAHQLAAAGDAGVQQAQKAKKAKKQQLGLRKVRVKIGNPHLRRLVSGAIAGAVSRTFVAPLETIRTHLMVGSSGADSMGGVFRWIMRTEGWPGLFRGNAVNVLRVAPSKAIEHFTYDTAKKYLTPEAGEPAKVPIPTPLVAGALAGVASTLCTYPMELVKTRLTIEKDVYDNLLHAFVKIVRDEGPGELYRGLAPSLIGVVPYAAANFYAYETLRGAYRRASGKEEVGNVPTLLIGSAAGAIASTATFPLEVARKQMQVGAVGGRQVYKNVLHAMYCILNKEGAAGLYRGLGPSCIKLMPAAGISFMCYEACKKILVDDKQDGEPQDQEETETGHTQGQAAPKSPNANGDRP
notes: codon-optimized ORF in pET16b with N-terminal His-tag, expressed in E. coli C43 (DE3)
What does the source list for B1?
Km [1]: 334.7 µM; Km [2]: 614.5 µM

— article PMC4043945, “Biochemical and Molecular Characterization of Barley Plastidial ADP-Glucose Transporter (HvBT1)” (PLoS ONE, 2014)
